According to patent US20170044545:

Target: Autotaxin (ENPP2, NPP2) (Homo sapiens) (UniProt Q13822)
Experiment: inhibition
Conditions: 2'-F pyrimidines, 2'-OH purines

| Sequence | IC50 |
| --- | --- |
| CGGAUACGUCUCACUUCGUCNNNNNNNNNNNNNNNNNNNNNNNNNNNNNNCAGAGCGUUUAGAGUGCGGUCCC [30N RNA pool] | > 1 µM |
| GUACGAAGACGCAUCUCACNNNNNNNNNNNNNNNNNNNNNNNNNNNNNNNNNNNNNNNNGUUCCAUGUCCUGUUGCCACCC [40N RNA pool] | > 1 µM |
